According to patent publication EP1313853B1:

Molecular target: Fas (Apo-1, CD95) (human) (UniProt P25445)
Test: cell-based or functional assay

Chain of UniProt P25445 (P25445 26-335): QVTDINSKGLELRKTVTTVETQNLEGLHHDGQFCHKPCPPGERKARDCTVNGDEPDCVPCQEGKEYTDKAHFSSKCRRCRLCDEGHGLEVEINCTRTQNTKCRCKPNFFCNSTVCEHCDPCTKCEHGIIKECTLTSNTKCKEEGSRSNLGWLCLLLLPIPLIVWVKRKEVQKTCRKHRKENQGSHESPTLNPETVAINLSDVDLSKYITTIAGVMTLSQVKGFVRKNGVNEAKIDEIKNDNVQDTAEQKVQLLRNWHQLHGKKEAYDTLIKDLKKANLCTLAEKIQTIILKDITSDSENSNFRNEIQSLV

% INHIBITION of Jurkat human leukemia T cell proliferation (MTT), 0.02 µg/ml antibody, no sequence: 16%
% INHIBITION of Jurkat human leukemia T cell proliferation (MTT), 0.2 µg/ml antibody, no sequence: 33%
% INHIBITION of UMUC-3 bladder cancer cell proliferation (MTT), 0.02 µg/ml antibody, no sequence: 7%
% INHIBITION of UMUC-3 bladder cancer cell proliferation (MTT), 0.2 µg/ml antibody, no sequence: 17%
Substance: agonistic anti-Fas monoclonal antibodies (clone CH-11: Coulter-Immunotech, Marseille, France) (antibody)
